Consider 50 sequences from the domain aggregation screens of Martell et al. (2025).

A short description of this data set: soluble fraction after stress (log2 fold change); higher = more stays soluble; pooled small domains, quantitative proteomics. Particulars: stress: pH 4. In short, it runs like this:
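Values are log2 fold changes, and higher ones mean more of the domain stayed soluble. Each fold change reflects the soluble amount of a domain after acid stress and is taken as a measure of aggregation propensity. The stress was pH 4, applied to pooled custom libraries of small protein domains analysed by high-throughput quantitative proteomics.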
In the case of “HMFLTPLEEARLVIEEIVIPKNIAVDLSPRPSALRKQQHELIAHYQLKSFSVGNERTKRLRILPKVI”, the “soluble fraction (log2)” value was -0.46.

Consider “HMFMLQAKRVPVSELENFKGIVAEDVVSQSRALILPRGSNLSWLSSSAMQNLSTRLALEGVESISIYL”, for which the “soluble fraction (log2)” value is -1.8.

Consider “HMFMVAGHLSEKNGYFYAVINYNDSLGNRKTKWMSTGLTVKGNKKRAEAILAEKRRTFQPDEPV”, for which the “soluble fraction (log2)” value is 0.129.

For the sequence “HMFNDPTMEDALVNLKGITNEVLSYLSSSKIKKLEELAEMSVPELKDIVENISDDEASALIMEARKPWF”, the “soluble fraction (log2)” value is -1.32.

On to “HMFNEFEDIPDIISAEGIDPAMREEVAANLKKYYKNPDAMLALAPLEREYYEKLVGILSEKIELKKEN”, for which the “soluble fraction (log2)” value is -0.361.

On to “HMFNFPEEVRVQLAKSEQLRNLLIPMSETVRDALSGEELWFGRTIFNTTSKKIESWTNPGVWVE”, for which the “soluble fraction (log2)” value was -1.28.

“HMFNIIARQEIDEILYEYKIENSEDYKNRDPEELAEIYENIKTVQENHDLSDDDVEELLKSIFSDY”: the “soluble fraction (log2)” value is -2.2.

In the case of “HMFNKTKVPNFIDMNYYEEIEGNSEYDKFNFADPITKNDDTKAPGTVIDQTPEKGTRIDEEKTVIQLTIA”, the “soluble fraction (log2)” value is -0.149.

With “HMFNRAVSDNEALQVREHFDRDATVMSLAKKYGVSTVTIQRILLGKTYRNVGGPLFDKATLKKRMGN”, the “soluble fraction (log2)” value amounted to 0.13.

With “HMFNVKAYEKAVKSYITKRKPLGEALDEEIMDELSVKFGIVDDALEDLFKQIQDAGISIVDKDGNPSPLAL”, the “soluble fraction (log2)” value is -1.78.

In the case of “HMFPELEPDEQLIADLLRKTNNLQINIITVRTGLPINRVTALLFQMEMKGVVRPLAGGTYHLLV”, the “soluble fraction (log2)” value is -0.389.

With “HMFPELSPEEQLIVEVLSKTNDLQVNLISVKTNIDISRLTSLLFTLEMKGVIKTFAGGMYHLL”, the “soluble fraction (log2)” value is -0.712.

Consider “HMFPSLSPEEQAVVDVLQRNNDLQINMLSVQSGLTISRLTALLFQLEMKGVIKPLAGGMYHLL”, for which the “soluble fraction (log2)” value is -0.493.

Turning to “HMFPTLSPEEQRIVDQLAKENDLQANVIALRTALTIPQISALLFSLEMKGMVRLYAGGTYHLI”, the “soluble fraction (log2)” value was -0.142.

“HMFQPEQISKLNELETLVLDFIIKSPDKVQKATIRSLATQLHVSTTTIVRMSTKLGFNGWSELKFFLKNQS”: the “soluble fraction (log2)” value is -0.65.

On to “HMFRDFSETLLRKLQAAGGFLPFTDKTDAEAIAEHFQVSKKTFKRAVGTLYKQRRILIDDEGITLIG”, for which the “soluble fraction (log2)” value is 0.252.

Turning to “HMFRPDYYEILQVDRHASPEVITAAYRQLLSIYNSEQDGNKQMIKLIQEAYGVLGDSQDRWLYDSWLDNN”, the “soluble fraction (log2)” value is -1.37.

For the sequence “HMFRSNAERAAHLASALPRAEAELAALQARGAATSENIYLRSSYFDALRYTEELRAAKRAQDALQGA”, the “soluble fraction (log2)” value amounted to 0.0123.

Regarding “HMFSAASSQISSYVRSVVDKAQTYEQAYEILAKNPLGFKLDALEDELFRIIANAEILGADDDE”, the “soluble fraction (log2)” value was -1.24.

Turning to “HMFSNATISGLKAGALVRVYNISGVAVSTLTADAEGKVSVDLNNLPKGVYILSTPSKSFKVLN”, the “soluble fraction (log2)” value came to 0.176.

As for “HMFSWRQHLDHFGFSDEIKKRLADAVFLNDDWNEIDRGVLTKEELLARFIENDPGIEKEIYMVMENIN”, the “soluble fraction (log2)” value is -1.78.

In the case of “HMFYPIAHTLTKLNIRSGPGEQYQKLATFENNHDLVVLTQQNEWVQVRGKSDEQVIIGWVHSSFLSPT”, the “soluble fraction (log2)” value is -1.33.

In the case of “HMFYQLTENQRRILSSLEQNPRVSAAHLAEEIGISSRKVENNLKKLKEIGLLQRHGSPRKGYWSINQGW”, the “soluble fraction (log2)” value is 0.15.

On to “HMGAAAQLLHAVVLRVPAEDTMKFVSETPELRRYLGAPLGPTAALVRPGQEQELAAALQAHGILVEFDE”, for which the “soluble fraction (log2)” value amounted to 0.12.

For the sequence “HMGAAITEAEAKQIALDHAGVSESETERMRVKLGRDDGVQEYEVNFYVGNREYDYDINAATGEIRSHDSE”, the “soluble fraction (log2)” value was 0.22.

Take “HMGADPTTWPEIDAFVGRVAVTATGLFPSGQVEIDGRRFEARLAFGVAEPGARVVVRRRTDFGLLVEKETR”: the “soluble fraction (log2)” value was -0.531.

Regarding “HMGADRLVGMTAIVTATIDPNDTDRKGRVQVEGEVWSALSDGRLIITEGSKVRITEMHGTRVRVEAI”, the “soluble fraction (log2)” value is -0.884.

For the sequence “HMGAEWTEMRVWTSTSGSKVTAEASSLTNGQVTLETKSGKRITLSIRKLVEADQKFLEAHFSK”, the “soluble fraction (log2)” value stood at 0.101.

Regarding “HMGAGLLEPEPLKIEIQETQERLQKLQKALERDTETADSKERIKRAIEAHKARISQLQGLIE”, the “soluble fraction (log2)” value came out at 0.0704.

“HMGAKVFTVPNLIGKYAIEAGIILKKEGLSEGEVKEENSDKYAAGQIIDQYPAADSPAKENDKINYVVSIG”: the “soluble fraction (log2)” value was -0.0221.

As for “HMGANSAYMAMRDRIQQRLLAELSPGVTRSDTAEVRRVVERIFNETTAELGLPLSRLERNDIFDLVLADIL”, the “soluble fraction (log2)” value was -1.72.

Consider “HMGAPLAVGDSVRVVVSGPRAFVYTAPNGALSGAVRNGAAFTVLELSPDNTWARIGSGEWIKVEFLATG”, for which the “soluble fraction (log2)” value is -0.373.

For the sequence “HMGATYSQFLDQVDGGNVQKVTFSGDMRSGTNQISYTTRSGQSATITAPMDRDLINILRAKNVEIVQEEP”, the “soluble fraction (log2)” value was 0.22.

Regarding “HMGAWQQTGFFRNRENAESLAEVLRQRGFSPVVREDTRPSGTVYYAVLVPDDGTTAARLKDAGIDSYPV”, the “soluble fraction (log2)” value came to 0.367.

Regarding “HMGDDYFTILGIERDATTDEIRSAYRRLSKKIHPDAQGSSALFRQVQEAYETLIDPSSRARYVAELNASQG”, the “soluble fraction (log2)” value was -0.0836.

Turning to “HMGDERDRLLLARGKRIYQELIGSDRENVAAALREFEAVLAVNNRRAIHVMRQRLAELFGVYEEFLNEEFL”, the “soluble fraction (log2)” value was -1.29.

As for “HMGDEVAVTEILVKVGDTVEADQSLLTVEGDKASMEVPAPFAGVVKAIQVQLGDKVVTGSPIMLFEV”, the “soluble fraction (log2)” value was -0.88.

As to “HMGDFNYVMPDFRGLEAHDVSSFLNRNGFLLRPTEHEVSFTQRPGLILMHYPEPGYPFSRSSPITLVVS”, the “soluble fraction (log2)” value was -0.932.

As to “HMGDGMEVWVNGSPVNLTGKDSFIFVDIFDFIDFDLTASKGRLIVIKVNGEYAEYTRPLHNGDTIEIYWEE”, the “soluble fraction (log2)” value is -0.638.

As to “HMGDGRVGVITASIAYEYAKEVFPEGTSFLKLGLTFPLPMDLIRDFASKVEKLYVIEELEPL”, the “soluble fraction (log2)” value was -1.72.

Turning to “HMGDHYTALGLSIDATPEEIRSAYFLAARRSHPDANPDAQTTEWFLRVQEAYDILSNPRRRAEYDASLP”, the “soluble fraction (log2)” value was -1.46.

Turning to “HMGDKRPIAVGDYVKLEGQDTPGQVLSISGKNATVGFGMLKTTVKLDRLRHTMAKPQTGASAGVR”, the “soluble fraction (log2)” value was ≥ 0.43.

For the sequence “HMGDKVTIPNLIDMKLTDAQNQYKPQGFSIVKNGERESDKEAGTILEQDKAAGTEISGKDIRIFVVVSSGS”, the “soluble fraction (log2)” value was -0.302.

On to “HMGDLAAAGNHTLEVMGFPQHPDESYRHFVGNGIPKLIERMLPAGHDKETEQKAYDIFMEYYSAHK”, for which the “soluble fraction (log2)” value was -0.439.

“HMGDPMAIMQLSSNTTPEYWEAYQKYHIQEYEQSNFIRYVNGISVLDDDFVDKVLITIDQHGRIFSELKS”: the “soluble fraction (log2)” value was -2.5.

As to “HMGDSEMPVSEVVRLAKLDQISSIEISGTKLTIITNNLETYTSRIEENSTIIEILQRAGVDIGGLEIYPHG”, the “soluble fraction (log2)” value was -0.983.

With “HMGDVSGFLRGVLADGPVPAKTVFSEASGAGYSRDQIQRAARKIGVERRKTGMAGGWVWELEP”, the “soluble fraction (log2)” value was -0.038.

Regarding “HMGEAYVVPNVKNKTLGEAQLALHNQKLEGLVVDSSYVKGLPDGMILDQNPAGGARVKEGRTIYLTITTS”, the “soluble fraction (log2)” value is -0.146.

In the case of “HMGEDFPYVAYATDSVRLRSKPSSSGDILAVIRQGDAVLITGSDGNYKIVEYEGRKGYVISAFLSQTP”, the “soluble fraction (log2)” value was -0.438.

Turning to “HMGEDLTIDQLAAEVDMTVRNIRAHQARGLLPPPTIKGRIGYYGPLHRRRLQQIRAMQEEGLNLAAIAKVV”, the “soluble fraction (log2)” value was -0.533.
